Test: soluble on expression in E. coli; label from the status in PepcDB or PDB records

Row | Sequence | soluble on expression in E. coli
1 | MAIVKKKKVSAASKAATEKPEVKKAVKRPVAETEAVTPKKKKLVKKVKKSAKKAHEEEPIEQVEKLQLIDDDEDGLEGLSFPGSDDEDLRDDYSDDDSDAGDHLPIEKKSAALDKQKEKIIAEGEEELQLNIANQATFELPTVEEIENEMKSVPNLEIVKQRIADVIQVLGDFKNRRDPQKSRENYVEVLKKDLCSQYGYNDYLMGKFMDLFPNGAELLEFLEANDNPRPVTIRANSLKVKRRDLAKNLINRGMNVDPAADWTKVGLVVYDSQVPVGATPEYLAGHYMIQGLNSLLPVMALAPQPGDRVLDMCSAPGGKTSHIAALMKNSGVLFANDANFTRCRAIIGNLHRLGVNNTVVCNLGGEEFSKIRPNGFDRILLDAPCSGTGVIWKDQSVKTSKDSQDVQRRHTMQRQLILSALDSLDANSPNGGYLVYSTCSVLVEENEAVVNFLLERRHCELVPTGLSIGVDGYTRFRDYRFHPSLSMTKRYYPHVHNIDGFYVAKIKKLSNAKMSKQGVMEKEKEKAAQKSQNKKNKAEAEASESSDDEEEKKNGVEVNGQKKPAKKQQQKKQKADGDDSDDDNNAPMKNIGSGARANKKRRNQKKAAEKQAAVKEDDGFNTVGNVKRAKKPTQFKSKVPKRAAARTGAKSVKNRRKKMLAKQQ | not soluble
2 | MKIWSSEHVFGHPWDTVIKAAMRKYPNPMNPCVVGVDVLERSVDGCGRLHSLRLLSTEWGLPGLVRAILGANRTLTYIKERSVVDPAARKMELCSTNITLTNLVSVNERLVYTPHPENPEKTVLTQEAIITVKGISLGSYLESLMATTISSNAKKGWAAIEWIIEHSESAIS | not soluble
3 | MEIDEGKYECEACGYIYEPEKGDKFAGIPPGTPFVDLSDSFMCPACRSPKNQFKSIKKVIAGFAENQKYG | soluble
4 | MASIKLYFDKRVNRKDGKFPLKINVTHKRQQALINLGVLLSPDQWDSTKGKVINGPNKSFLNGYISQRVHCAETELLNLRIAGKLDLMTGKQFKEHLQRILLRGKLEEKQEETGCSFVQYYTRFVEGKKNPQTKAVYQYTLDRICRFVDVPDKFRFEDVTYAWLKSFEIHLSETSKVNSISIHMRNIRAVFNDALNTETISCYPFRRFKIKQEATAKRALTPEELVTLRDYPCEEHQKQYVDIFMLIFYLVGINTVDLCRLEKIRNGRIEYRRAKTKKIYNIKVEPEAAEIIERYKGSKYLLNILERYKNYKDYAHRLNENLQEIGSVELVEKVINGKRRRVKKRFPLFPELTVYWARHTWATIAHKIGVSKDVISLALGHEFGCKTTSIYIDYDMEKVDKANRQVLDYLENLK | not soluble
5 | PEHIRQMAQAVEGVTPRALPDLPVACRLSGLEPLTIEKETLFINVGERTNVTGSARFKRLIKEEQYDEALEVARQQVENGAQIIDINMDEGMLDAQACMVRFLNLCASEPEISKVPIMVDSSKWEVIEAGLKCIQGKGIVNSISLKEGKEKFVEQAKLIRRYGAAVIVMAFDEVGQAETRTRKLEICTNAYRILVDEVGFPPEDIIFDPNIFAVATGIDEHNNYAVDFIEAVADIKRDLPHAMISGGVSNVSFSFRGNNYVREAIHAVFLYHCFKNGMDMGIVNAGQLEIYDNVPEKLREAVEDVVLNRRDDATERLLDIAAEYADKGVGKEEDASAL | not soluble
6 | MGSDKIHHHHHHMTANPTVFTFADSTDLILEIPDSTTANLDSQLFSHPYSRYQAYLNELCLSAVLPWLQEDFSTQAKVWPSATTLASLWELVNGTAVTIDGKRFILVPSENIDHSELRVQQEWVDLPTWAGDYYLAVQVDGEYVKVWGYCTHTQLKHQGKYDPGDRTYSLDITDIVNDISVLAVARDLCPDEITRTAIAPLPTIPQEQAQNLITRLSNPEIINPRLAIPFQLWGALIEHGGWRQSLYERRLGLPEQRSVLQWLQSGVSQVAQTMGWGRLNLQLSAAGARSVEERQTGVTLSRRLTIAGQLYELLITPQGEPDAPYWRFELRNAAVGAVIPGGFKLRLLTEDLQSFPNNEDIATNAVEQLYVEVALEAGEGIVWEIEPLPENYDREILKF | not soluble
7 | MSLEYARRQALAREGLSAAGLDALIVTGPENIFYLCGQQTPGYYTFQALILPADGDPVFLIRQLEYFNFIANTFISDAVVYQDGEDPLALLVKLIESRGLASRRIAIDKRGWFLPIAVYEALQARLGTIGDGAGVIERFRAIKSPLEVEKLEKAAAYVDEGMRAGLAAVRVGATENDLVSAMLGSAIAAGSEYLGMEPLVSVGPRTGVPHGTWRRRAITDGDPAFLEMAACHDRYHAALMRSAWIGEPPREAVDMMKACQEALQVSLDTIRPGVACEVPHIACQKVIDRAGYTDNFKKRLGYSVGISFAPDWGEGAILSLNTGVKTELQPGMTFHLPPALRIYGRFTVGVSETIVVTETGYRALGSIDRNLLIVEGHHHHHH | soluble
8 | MGSDKIHHHHHHMVKVVKFGGSSLASAEQFTKVGDIIRSDESRKYVVPSAPGKRNSKDTKVTDMLYACYDLAENDQDFKVMLRKIKDRYDSIINGLHLKLALDEEFKIIAENFKAKAGADYAASRGEYLNGIIMANYLGYEFIDSATVIFFDENGNFDAEKTDKVLSKKLEQTEKAVIPGFYGAGPDGKVVTFSRGGSDITGSIVSKACHASMYENWTDVSGCLVADPRIIDNPQPIKVVTYRELRELSYMGASVLHEDAVFPVRKAGIPINIRNTNDPEAPGTLIVESTCQKPDYTITGIAGKKGFVAVNIDKDKMNSEVGFCRKALQAFEENGISIEHMPSGIDTMTVFVHQAEFEGKEQQVISSIRRLAHPDIIDLESDLALIAVVGRGMKSNRGTAGRIFSALAHANINVRMIDQGSSELNIIIGVSNDDFDKAIKAIYDIFVVTQL | not soluble
9 | MRLCHSIILFNSLISISICSKADDPALLVASEFKEHFNVEEKQLETVEELLIKMKKLAHSRSFKGREFGHDAVEDSKKEVAISTQQGTINKKVSPFLFEGDIFLSRRQAVDILKALSKDKTKRLRRSFVSDKTATWKTMPIKYRFHESIDFYTISQIIAAIRFWEDSTCITFENVSDSPDGDYIEFFSGQGCYSMIGRNGGRQGISIGESCVKASFFVMGVIEHEIGHALGLWHEQSRPDALGYVTIERDFILPSYISDFLQRDDEIDTLGIPYDLGSVMHYGSTAFSVDQKSKTVVTRDSLYQQTIGQREKLSFYDVATINTAYCKDECKSEKTKCENGGYMRPSKCSECLCPDGLGGEKCEKNEDSKNAECGGIIKLTEEWKEIESPNYPDPGYEADQKCSWLLKAEKGKRVEIEFIEDFSFLCTSTCVDFVELKISDDLRNTGFRFCCYDKPEISFVSQTDTAIIIFRSQLSTDIGFKIQAKSNELIIKTFKNSQKTKMQILFPKLSLKNNSADAEPRTTIAPTIITTTLAPITVDAPNVWADWGEWSMCSRTCGGCGIRSRVRSCRSKKCEGRRQEFGTCNLKACPVDKHCAKLLSNNRLCNGKVCTKNDIAISSCDAPQCCPPFINVDGVCQSDQENQHDELWLSI | not soluble
10 | MAMGKPMQVSRYWRHFREKYRLIGGKCENGHLLFPKRPICPICGSRNIEEFQFSGKGKVITWTIVRNPPSGFEYYKPYPLALVQLEEGPVVLAQLTDVEPEEIKEGMEVEMVTRKIREFDEDGLILYGYKFRPIIKSELEHHHHHH | not soluble
11 | SNATIYRMVDLPVIQPRLCTHARWPAPVYGLLVDPSLPSNPQWQNGRVHVDGTLLGTTPISGSWVSCFAAEAAYEFQSGTGEVATFTLIEQDGSAYVPGDRAAPLGYPDFSGQLEIEVQTETTKTGDKLKVTTFEMILGPTTNADQAPYQGRVFASVTAAASLDLVDGRVRAVPRSIYGFQDTIPEYNDGLLVPLAPPIGPFLPGEVLLRFRTYMRQIDTADAAAEAIDCALPQEFVSWFASNAFTVQSEALLLRYRNTLTGQLLFECKLYNEGYIALSYSGSGPLTFPTDGIFEVVSWVPRLYQLASVGSLATGRMLKQ | soluble
12 | MSQTKIEWADKVWNPVSGCTKISEGCQNCYAERMSKRLAGRCGYPAEEPFKVTPHPEKLGEPLKWRKPLRIFVNSMSDLFHADVPDKFIINVLSMIAEASHHTFLILTKRPERMRELLNHDTIANDVWLQTSRGVNAERSPWPLPNLWLGVSAENQAAADERIPILLQTPAAVRFVSVEPMLSEVNLSRYLKRPICKHWGRNGDPNIYGRYFWGKQALVGAGWVGIDWVICGGETGPGARPMHPVWVRDLRDQCRVAGTPFFFKSFGEYVRVGECMNEEDDEEFYSKSSAAGTNVQRLNLQGGMGYHGPKSIYMQRIGKKRAGRELDGRTWEEFPLEHHHHHH | not soluble
13 | MNVGIKGFGAYAPEKIIDNAYFEQFLDTSDEWISKMTGIKERHWADDDQDTSDLAYEASVKAIADAGIQPEDIDMIIVATATGDMPFPTVANMLQERLGTGKVASMDQLAACSGFMYSMITAKQYVQSGDYHNILVVGADKLSKITDLTDRSTAVLFGDGAGAVIIGEVSEGRGIISYEMGSDGTGGKHLYLDKDTGKLKMNGREVFKFAVRIMGDASTRVVEKANLTSDDIDLFIPHQANIRIMESARERLGISKDKMSVSVNKYGNTSAASIPLSIDQELKNGKLKDDDTIVLVGFGGGLTWGAMTIKWGK | soluble
14 | AIAASGKRKGLSFDDKKTRLLELFNETCDFYTLKELEKIAPKLKGIITQSVKDVLQSLVDDDLVNSDKCGVQTIYWCLPSEAVAKRQRRLDALQQQLAEKRQKLTALQRQLVQVQAGREDSVERTAVLERLAACEAAWRERQRTLESYLECDPDVLAQRETETKTLIEQANRWTDNLYVIRSYVQRNLGVDLDLFDQQFELKPALQYLE | soluble
15 | PTSSTTAALVMGDALAVALLEARGFTAEDFALSHPGGALGRKLLLRVNDIMHTGDEIPHVGLQATLRDALLEITRKNLGMTAICDDDMNIIGIFTDGDLRRVFDTGVDMRDASIADVMTRGGIRIRPGTLAVDALNLMQSRHITCVLVADGDHLLGVVHMHDLLRA | soluble
16 | MAHHHHHHMANNNMDDINLECENDNDNKISSEKRLVDEIIENNIEEIKKKEKDNKEKDNKEKDNKEKDIMFNIKNGLCDLEKTLDGEGYAYSNLTCRKKGIDFIPKSITRYIHLKYINLSHNNINDLVHLYFLPNIIFLDVSYNMLKEIVELKKEYLKNCIYINLSHNLISHMNNIFLKNLLEFNISYNTINNINIYISNTIRILNLSNNNIKNINFKNKLNNLLDLDISFNPIENLDFHTLMPNLVVLRINDNSTISMDKLNNLNNFKCLQSLFMQNYLYFKDISYKDVKEILLQNSKDIHLLKFNGNRLNKKTDHIEQADVNK | soluble
17 | MHEWALADAIVRTVLDYAQKEGASRVKAVKVVLGELQDVGEDIVKFAMEELFRGTIAEGAEIIFEEEEAVFKCRNCGHVWKLKEVKDKLDERIREDIHFIPEVVHAFLSCPKCGSHDFEVVKGRGVYISGIMIEKEGEELEHHHHHH | soluble
18 | MVFDTHLHTLFSTDSKMNIEEAIDAGEKKNLGIIITEHIDLNYPVKGEFVFDIDKYFKEYNKYRSNKVLLGVEIGMGEEIKEQNKSINDKYEFDYVLGSIHLLNGLDLYEKTIYKSSPKKEVFEMYFKTMLACLRCHEYIDSLAHIDYISRYAAYHDGEIYYNEYSDYIDEVLKFIVDREIVIEINTRRLNKKEVCENLMPIYKRYSELGGRFVTIGSDSHYKDSIGLNFKNALKMAENCNLKPVFFEKRLMKYA | not soluble
19 | MKKIPQISDAELEVMKVIWKHSSINTNEVIKELSKTSTWSPKTIQTMLLRLIKKGALNHHKEGRVFVYTPNIDESDYIEVKS | soluble
20 | MGSDKIHHHHHHMSNQKIIRLSPNPQDFGHDCDDLDPQMFASELPVQHTHVYYEDDNLGLYIGVWDTSTMVEAAAPSPCDEFMYLLEGEVEIKNSKTGTMEKVQAGEAFVIPKGYDCQWHQTGYLRKFFVISEHPKEDIPTTPVVEGIIKLKVNNSSQMAIEDSTGVEIEPTNTPFVIKGKEPAQKHLPSYKDHTGKFIAGTWHSEAFNSEMQPFPRNEFIYLQSGSLVITEQEGDEQVFTAGDAFFVPQGALCSWRSIGDVHTFYAILQSS | not soluble
